T1: mouse MAdCAM expressed on cells (mouse, UniProt Q61826 22-405)
T1 construct: whole, on cells
T1 sequence (looked up): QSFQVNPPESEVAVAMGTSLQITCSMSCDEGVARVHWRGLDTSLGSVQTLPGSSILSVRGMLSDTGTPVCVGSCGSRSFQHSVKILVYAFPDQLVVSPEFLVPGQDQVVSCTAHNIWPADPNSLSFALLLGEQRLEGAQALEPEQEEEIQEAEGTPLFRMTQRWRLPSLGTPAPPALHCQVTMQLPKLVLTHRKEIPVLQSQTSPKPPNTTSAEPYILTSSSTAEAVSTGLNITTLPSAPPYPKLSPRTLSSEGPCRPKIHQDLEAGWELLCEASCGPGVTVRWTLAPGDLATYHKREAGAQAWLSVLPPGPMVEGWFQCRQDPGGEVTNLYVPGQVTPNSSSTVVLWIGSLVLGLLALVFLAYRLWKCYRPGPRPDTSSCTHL

T2: human MAdCAM expressed on cells (human, UniProt Q13477 19-382)
T2 construct: whole, on cells; also called MADCAM1
T2 sequence (looked up): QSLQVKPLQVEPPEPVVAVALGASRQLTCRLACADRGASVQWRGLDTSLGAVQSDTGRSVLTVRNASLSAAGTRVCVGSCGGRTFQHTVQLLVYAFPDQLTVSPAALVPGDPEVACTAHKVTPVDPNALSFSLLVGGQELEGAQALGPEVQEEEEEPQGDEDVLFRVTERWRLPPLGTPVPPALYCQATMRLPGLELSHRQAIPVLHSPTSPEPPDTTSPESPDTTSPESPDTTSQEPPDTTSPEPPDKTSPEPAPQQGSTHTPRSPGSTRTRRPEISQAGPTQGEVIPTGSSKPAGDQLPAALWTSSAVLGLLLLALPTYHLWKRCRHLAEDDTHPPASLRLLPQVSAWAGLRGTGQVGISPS

T3: recombinant mouse MAdCAM-1 (mouse, UniProt Q61826 22-365, limits assumed)
T3 construct: also called mMAdCAM-1; mouse MAdCAM-Fc
T3 sequence (looked up): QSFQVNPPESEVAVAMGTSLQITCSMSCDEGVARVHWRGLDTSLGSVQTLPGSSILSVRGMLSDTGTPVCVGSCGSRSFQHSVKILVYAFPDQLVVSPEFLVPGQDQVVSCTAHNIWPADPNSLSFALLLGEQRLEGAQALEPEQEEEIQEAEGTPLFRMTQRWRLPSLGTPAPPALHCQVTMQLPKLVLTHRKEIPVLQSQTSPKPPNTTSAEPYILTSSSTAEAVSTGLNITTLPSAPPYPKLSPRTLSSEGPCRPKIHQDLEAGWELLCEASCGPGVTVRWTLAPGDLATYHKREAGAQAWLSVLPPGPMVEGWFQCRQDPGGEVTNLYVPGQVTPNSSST

T4: CD25 (Homo sapiens (Human), UniProt P01589 22-240)
T4 construct: also called IL-2R alpha chain
T4 sequence: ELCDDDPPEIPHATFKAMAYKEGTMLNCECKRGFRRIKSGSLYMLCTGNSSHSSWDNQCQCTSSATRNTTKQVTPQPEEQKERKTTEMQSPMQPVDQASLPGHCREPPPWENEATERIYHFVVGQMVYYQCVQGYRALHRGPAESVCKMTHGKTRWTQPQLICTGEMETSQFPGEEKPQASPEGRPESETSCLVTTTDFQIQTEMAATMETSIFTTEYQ

B1: MAdCAM Antibody Table 1 Clone 6 (scFv)
scFv: EVQLLESGGGLVQPGGSLRLSCAASGFTFNNYAFHWVRQAPGKGLEWVSRINSYGTSTTYADSVKGRFTISRDNSKNTLYLQMNSLRAEDTAVYYCAREGPVAGYWYFDLWGQGTLVTVSSGGGGSGGGGSGGGGSGGGGSDIQMTQSPSSLSASVGDRVTITCRASQIIGTNLAWYQQKPGKAPKLLIYGASSLQSGVPSRFSGSGSGTDFTLTISSLQPEDFATYYCQQSYRLPFTFGQGTKVEIK
notes: also called Antibody Clone 6
B2: MAdCAM Antibody Table 1 Clone 19 (scFv)
scFv: EVQLLESGGGLVQPGGSLRLSCAASGFTFDDYAMHWVRQAPGKGLEWVSGISWNSGSIGYADSVKGRFTISRDNSKNTLYLQMNSLRAEDTAVYYCAKDIVAAGHYYYGMDVWGQGTTVTVSSGGGGSGGGGSGGGGSGGGGSDIQMTQSPSSLSASVGDRVTITCQASQDISNYLNWYQQKPGKAPKLLIYDASNLETGVPSRFSGSGSGTDFTLTISSLQPEDFATYYCQQSYSTPLTFGGGTKVEIK
B3: MAdCAM Antibody Table 1 Clone 23 (scFv)
scFv: EVQLLESGGGLVQPGGSLRLSCAASGFTFSSYAMHWVRQAPGKGLEWVSGISGSGGSAYYADSVKGRFTISRDNSKNTLYLQMNSLRAEDTAVYYCATSQAPVDYYYYGMDVWGQGTTVTVSSGGGGSGGGGSGGGGSGGGGSDIQMTQSPSSLSASVGDRVTITCRASQSISSWLAWYQQKPGKAPKLLIYAASNLQRGVPSRFSGSGSGTDFTLTISSLQPEDFATYYCQQSYSIPITFGQGTKVEIK
B4: MAdCAM Antibody Table 1 Clone 20 (scFv)
scFv: EVQLLESGGGLVQPGGSLRLSCAASGFTFDDYAMHWVRQAPGKGLEWVSYIDTSSSHLYYADSVKGRFTISRDNSKNTLYLQMNSLRAEDTAVYYCARDEAAAGYYGMDVWGQGTTVTVSSGGGGSGGGGSGGGGSGGGGSDIQMTQSPSSLSASVGDRVTITCQAGQDISNYLNWYQQKPGKAPKLLIYDASNLETGVPSRFSGSGSGTDFTLTISSLQPEDFATYYCQQTYSTPITFGQGTKLEIK
B5: IL-2 mutein SEQ ID NO: 55 (Fc fusion)
chain: APTSSSTKKTQLQLEHLLLDLQMILNGINNYKNPKLTRMLTFKFYMPKKATELKHLQCLEEELKPLEEALNLAPSKNFHIRPRDLISDINVIVLELKGSETTFMCEYADETATIVEFLNRWITFSQSIISTLTGGGGSGGGGSGGGGSGGGGSDKTHTCPPCPAPEAAGAPSVFLFPPKPKDTLMISRTPEVTCVVVDVSHEDPEVKFNWYVDGVEVHNAKTKPREEQYNSTYRVVSVLTVLHQDWLNGKEYKCKVSNKALPAPIEKTISKAKGQPREPQVYTLPPSREEMTKNQVSLTCLVKGFYPSDIAVEWESNGQPENNYKTTPPVLDSDGSFFLYSKLTVDKSRWQQGNVFSCSVMHEALHNHYTQKSLSLSPG
notes: also called IL-2 L80I N88D V69A, C125S Q74P-G4Sx4-Fc
B6: IL-2 mutein SEQ ID NO: 56 (Fc fusion)
chain: B5 chain with I80L, L118I
notes: also called IL-2 L118I N88D V69A, Q74P, C125S-G4Sx4-Fc

Numbering of substitutions follows the chain as printed. Numbers in names are those of the source.

The target of one test is T1, mouse MAdCAM expressed on cells. The test can be described thus: cell binding.
In the case of B1, the binding result is on record as “no binding”.
B2: the binding result was “no binding”.
Turning to B3, the binding result is listed as “no binding”.
As for B4, the binding result is “no binding”.

The next test concerns the target T2, human MAdCAM expressed on cells. Nature of the test: cell binding.
With B1, the binding result was “binds”.
For B2, the binding result is listed as “binds”.
As to B3, the binding result is given as “binds”.
For B4, the binding result is listed as “binds”.

The next test has as its target T3, recombinant mouse MAdCAM-1. The test can be described thus: Octet. (In general: BLI is a label-free optical method that tracks binding on a fibre tip over time.)
For the molecule B1, the binding result is given as “no binding”.
In the case of B2, the binding result is given as “no binding”.
As to B3, the binding result was “no binding”.
With B4, the binding result is “no binding”.

A further test has as its target T4, CD25. Nature of the test: ELISA, CD25 coated plate.
The term EC50 denotes the concentration that produces a half-maximal response. The low end stands for a more potent agent, the high end for a less potent agent. As to B5, the EC50 is under 1 nM.
In the case of B6, the 50% effective concentration (EC50) is under 1 nM.

Source of the values: US20210206856A1 (PANDION OPERATIONS, published 2021).
